Assay [1] has as its target TLR-2 in which His-tag was added to the N-terminus (His-tag-added TLR-2). The assay can be described thus: pull-down of HMGB1 (2 ug) with His-tag-added TLR-2 (2 ug) on Co2+ agarose beads, Western blot with anti-HMGB1 antibody; lane '-': no tRNA, no RNA aptamer.
For assay [2] the target is unchanged. The assay can be described thus: pull-down of HMGB1 (2 ug) with His-tag-added TLR-2 (2 ug) on Co2+ agarose beads, Western blot with anti-HMGB1 antibody; lane '+': tRNA added, no RNA aptamer (reference lane, set to 100). Background: In western blotting, separated proteins are transferred to a membrane and probed.
The target is the same in assay [3]. The experiment in a line: pull-down of HMGB1 (2 ug) with His-tag-added TLR-2 (2 ug) on Co2+ agarose beads, Western blot with anti-HMGB1 antibody; tRNA added, in the presence of 1 ug of RNA aptamer R8c6_1-18 as inhibitor.
Assay [4] shares this target. The experiment in a line: pull-down of HMGB1 (2 ug) with His-tag-added TLR-2 (2 ug) on Co2+ agarose beads, Western blot with anti-HMGB1 antibody; tRNA added, in the presence of 2 ug of RNA aptamer R8c6_1-18 as inhibitor.
Assay [5] has the same target. The experiment in a line: pull-down of HMGB1 (2 ug) with His-tag-added TLR-2 (2 ug) on Co2+ agarose beads, Western blot with anti-HMGB1 antibody; tRNA added, in the presence of 4 ug of RNA aptamer R8c6_1-18 as inhibitor.
Assay [6] has the same target. The experiment in a line: pull-down of HMGB1 (2 ug) with His-tag-added TLR-2 (2 ug) on Co2+ agarose beads, Western blot with anti-HMGB1 antibody; tRNA added, in the presence of 1 ug of 40N RNA library (comparative example).
Assay [7] has the same target. The assay can be described thus: pull-down of HMGB1 (2 ug) with His-tag-added TLR-2 (2 ug) on Co2+ agarose beads, Western blot with anti-HMGB1 antibody; tRNA added, in the presence of 2 ug of 40N RNA library (comparative example).
The target is the same in assay [8]. The experiment in a line: pull-down of HMGB1 (2 ug) with His-tag-added TLR-2 (2 ug) on Co2+ agarose beads, Western blot with anti-HMGB1 antibody; tRNA added, in the presence of 4 ug of 40N RNA library (comparative example).

Sequence of TLR-2 in which His-tag was added to the N-terminus (His-tag-added TLR-2) (O60603 whole entry): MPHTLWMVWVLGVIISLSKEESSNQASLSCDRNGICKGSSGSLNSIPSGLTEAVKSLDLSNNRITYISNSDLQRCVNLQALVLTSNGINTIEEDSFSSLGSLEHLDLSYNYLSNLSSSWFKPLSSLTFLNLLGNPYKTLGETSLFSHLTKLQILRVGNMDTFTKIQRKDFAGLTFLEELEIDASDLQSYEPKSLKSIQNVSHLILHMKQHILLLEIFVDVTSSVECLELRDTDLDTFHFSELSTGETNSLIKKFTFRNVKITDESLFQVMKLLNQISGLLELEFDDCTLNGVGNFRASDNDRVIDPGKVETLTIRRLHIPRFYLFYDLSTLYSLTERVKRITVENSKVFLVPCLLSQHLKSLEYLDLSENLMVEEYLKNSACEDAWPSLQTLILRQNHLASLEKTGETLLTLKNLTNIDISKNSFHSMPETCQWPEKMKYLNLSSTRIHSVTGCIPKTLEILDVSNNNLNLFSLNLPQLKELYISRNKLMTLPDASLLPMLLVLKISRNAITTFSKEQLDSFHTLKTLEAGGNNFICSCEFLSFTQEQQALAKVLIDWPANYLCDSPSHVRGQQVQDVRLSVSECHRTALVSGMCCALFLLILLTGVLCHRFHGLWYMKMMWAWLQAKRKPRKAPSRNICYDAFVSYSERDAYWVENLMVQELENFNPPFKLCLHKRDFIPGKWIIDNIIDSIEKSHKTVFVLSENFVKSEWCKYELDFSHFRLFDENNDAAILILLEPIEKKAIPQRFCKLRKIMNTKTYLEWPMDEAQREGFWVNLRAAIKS
Sequence of HMGB1 protein (High-mobility group box 1 protein) (ligand) (P09429 whole entry): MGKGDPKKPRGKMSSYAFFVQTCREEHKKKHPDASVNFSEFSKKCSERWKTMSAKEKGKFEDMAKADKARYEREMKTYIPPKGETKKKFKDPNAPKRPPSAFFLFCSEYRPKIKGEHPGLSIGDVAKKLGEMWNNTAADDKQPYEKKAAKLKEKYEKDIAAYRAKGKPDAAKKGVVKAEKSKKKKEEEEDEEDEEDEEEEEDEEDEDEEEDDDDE

As to “HMGB1 protein (High-mobility group box 1 protein) (ligand)”, the HMGB1/TLR-2 (HMGB1 band corrected for TLR-2, relative to lane '+' = 100) in assay [1] came out at 60; in assay [2] it was 100; in assay [3] it was 113; in assay [4] it was 61; in assay [5], 29; in assay [6], 108. In addition, the values for the HMGB1/TLR-2 (HMGB1 band corrected for TLR-2, relative to lane '+' = 100) in assay [7] and in assay [8] were 84 and 85, respectively.
